Data published in US20140294863A1, “SERUM ALBUMIN BINDING PEPTIDES FOR TUMOR TARGETING” (GENENTECH, INC., priority 2002, published 2014).
Marks after values point to notes of the source that are not given here. Where a SMILES comes first, the peptide text is derived from it. Bridges are numbered along the chain shown (N, C = ends). Where no end group is shown, it is not given here.

How the values were obtained:
rabbit albumin [1] = target: T1, rabbit albumin (Oryctolagus cuniculus, UniProt P49065); test: Direct Binding ELISA, AB.Fab variants on immobilized rabbit albumin; set-up: purchased Sigma; conditions: average and SD of at least 3 determinations
Method: (§1) Mouse, rat, or rabbit albumin (Sigma, St. Louis, Mo.) were immobilized onto NUNC Maxisorp™ 96-well plates at 2 ug/ml overnight at 4° C. […] AB.Fab variants were serially diluted in binding buffer and added at 100 μl per well to the immobilized albumin for 30 minutes at 25° C. Unbound AB.Fab variant was removed by washing wells with 0.05% PBS/Tween® 20 and bound AB.Fab variant was detected with goat anti-human Fab′2-HRP for 1 hour at 25° C. Bound HRP was measured with a solution of tetramethylbenzidine (TMB)/H202. After 15 minutes, the reaction was quenched by the addition of 1M phosphoric acid.
(§2) Initially we explored binding of the AB.Fab variants to immobilized albumin using a Direct Binding ELISA.

rat albumin [2] = target: T2, rat albumin (Rattus norvegicus, UniProt P02770); test: Direct Binding ELISA, AB.Fab variants on immobilized rat albumin; set-up: purchased Sigma; conditions: average and SD of at least 3 determinations
Method: as §1, §2

rabbit albumin [3] = target: T1, rabbit albumin; test: SA08b binding assay (peptide competition ELISA), rabbit albumin; set-up: purchased Sigma; conditions: for effect on SA08b peptide binding to rabbit albumin: concentrations of up to 100 μM, data not shown; for improvement in IC50 relative to core sequence of about 10 amino acids: rabbit albumin
Source text: (§3) Plates were blocked as described above.
(§4) Peptides corresponding to identified phage sequences were synthesized and their affinity for rat, rabbit or mouse albumin measured using the SA08b binding assay.

rat albumin [4] = target: T2, rat albumin; test: SA08b binding assay (peptide competition ELISA), rat albumin; set-up: purchased Sigma; conditions: concentrations of up to 100 μM; data not shown
Source text: as §3, §4

[5] = Pharmacokinetics of AB.Fab variants in mice (HER2 Binding ELISA); type: in vivo; conditions: Mouse, group mean profile; for t1/2β: 4D5-H8 fit to one-compartment model (one half life estimate)
Method: (§5) All pharmacokinetic (PK) studies were conducted according to protocols approved by the Institutional Animal Care and Use Committee at Genentech, Inc. Sprague Dawley rats were supplied by Charles River Laboratories (Hollister, Calif. USA). New Zealand White (NWZ) rabbits were supplied by Myrtle's Rabbitry (Thompson Station, Tenn. USA). BALB-c mice were supplied by Charles River (Hollister, Calif. USA).
Over the course of 7 days serum was collected in 3 mice per time point by retro-orbital bleed or cardiac stick.
(§6) Briefly, samples were added to microtiter wells coated with HER2ecd and incubated for 2 hours at room temperature. The wells were washed, and goat anti-huFab-HRP was added and incubated for 1 hour at room temperature. Unbound HRP was removed by washing and enzyme substrate was added to detect bound HRP. […] Concentrations of AB.Fab were extrapolated by comparison to a standard curve of the dosed molecule.
In mice, a group mean serum concentration versus time profile was determined, producing one estimate for pharmacokinetic parameters for each AB.Fab dosing group. […] AB.Fab variant 4D5-H8 was fit to a one compartment model and estimates for the PK parameters of AUC, CL, Half-Life (t1/2) and V1 were determined using WinNonlin® software (Pharsight, Inc., supra).

[6] = Pharmacokinetics of AB.Fab variants in rabbits (HER2 Binding ELISA); type: in vivo; conditions: Rabbit; group mean
Method: as §5, §6
(§7) For rats and rabbits, concentration versus time profiles for each animal were fit to a two compartment model using, iterative re-weighting to estimate the pharmacokinetic parameters of Area Under the Concentration-Time Curve (AUC), Clearance (CL), Beta Half-Life (t1/2β), Volume of Distribution of the Central Compartment (V1), and Steady State Volume of Distribution (Vss) using WinNonlin® software (Version 3.2, Pharsight, Inc.; Mountain View, Calif.) and group means were calculated.

[7] = Pharmacokinetics of AB.Fab variants in rats (HER2 Binding ELISA); type: in vivo; conditions: Rat; group mean
Method: as §5
At pre-dose, and over the course of 7 days post-dose, plasma was collected via a cannula inserted in the jugular vein.
as §6, §7

rat albumin [8] = target: T2, rat albumin; test: Solution Binding ELISA, AB.Fab variants with soluble rat albumin; set-up: purchased Sigma; conditions: Rat albumin, as listed in Table 15; read-out: Kd for Albumin
rabbit albumin [9] = target: T1, rabbit albumin; test: Phage ELISA, phage clones on immobilized rabbit albumin; type: binding; set-up: purchased Sigma; conditions: pH 2.9; data not shown
Method: Phage clones (approximately 10^11 phage) were added to Maxisorp plates coated with rat, rabbit, or human albumin or with mouse, bovine, or rhesus albumin (Sigma), as described above. The microtiter plate was washed with wash buffer and bound phage were detected following incubation with HRP/Anti-M13 Conjugate (Amerisham Pharmacia Biotech, Piscataway, N.J.).

T2 sequence (P02770 25-608): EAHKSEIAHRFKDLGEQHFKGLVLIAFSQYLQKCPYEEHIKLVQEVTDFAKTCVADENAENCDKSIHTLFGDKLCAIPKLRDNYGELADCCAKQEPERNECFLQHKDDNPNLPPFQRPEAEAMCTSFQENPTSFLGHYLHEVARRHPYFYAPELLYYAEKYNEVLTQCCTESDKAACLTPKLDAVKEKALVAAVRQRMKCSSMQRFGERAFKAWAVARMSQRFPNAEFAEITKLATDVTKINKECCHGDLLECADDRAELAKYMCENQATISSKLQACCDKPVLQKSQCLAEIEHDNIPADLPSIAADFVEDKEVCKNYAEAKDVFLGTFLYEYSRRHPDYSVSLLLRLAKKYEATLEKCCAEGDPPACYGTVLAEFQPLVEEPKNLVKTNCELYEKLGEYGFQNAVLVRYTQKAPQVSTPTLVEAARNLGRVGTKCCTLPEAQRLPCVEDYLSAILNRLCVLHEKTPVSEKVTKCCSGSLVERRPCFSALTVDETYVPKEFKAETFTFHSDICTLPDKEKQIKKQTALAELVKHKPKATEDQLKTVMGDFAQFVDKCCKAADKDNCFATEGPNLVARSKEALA
T1 sequence (P49065 25-608): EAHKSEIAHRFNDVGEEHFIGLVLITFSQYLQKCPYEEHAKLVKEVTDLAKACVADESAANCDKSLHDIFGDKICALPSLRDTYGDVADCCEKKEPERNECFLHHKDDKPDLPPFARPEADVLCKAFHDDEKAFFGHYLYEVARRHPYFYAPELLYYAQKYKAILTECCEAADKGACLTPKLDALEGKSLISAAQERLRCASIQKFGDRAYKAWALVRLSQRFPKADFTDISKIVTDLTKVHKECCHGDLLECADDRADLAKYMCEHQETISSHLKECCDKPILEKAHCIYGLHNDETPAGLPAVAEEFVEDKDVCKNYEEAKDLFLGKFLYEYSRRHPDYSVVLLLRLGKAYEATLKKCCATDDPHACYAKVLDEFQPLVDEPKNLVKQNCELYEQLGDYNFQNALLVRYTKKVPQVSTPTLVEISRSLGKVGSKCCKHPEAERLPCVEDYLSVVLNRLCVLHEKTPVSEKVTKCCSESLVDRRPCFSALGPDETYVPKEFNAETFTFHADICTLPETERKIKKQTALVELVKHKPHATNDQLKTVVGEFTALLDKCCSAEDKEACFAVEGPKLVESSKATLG

4D5-H4: AB.Fab variant of Fab4D5 with shortened albumin-binding peptide on heavy chain, no GGGS linker (Table 12) (DICLPRWGCLWED; disulfide 3-9 (inferred); also: part of Fab heavy chain)
EC50 (rabbit albumin [1]): 500 ± 50 nM

4D5-H8: AB.Fab variant of Fab4D5 with shortened albumin-binding peptide on heavy chain, no GGGS linker (Table 12) (IEDICLPRWGCLWE; disulfide 5-11 (inferred); also: part of Fab heavy chain)
EC50 (rabbit albumin [1]): 500 ± 50 nM

4D5-H10: AB.Fab variant made by deletion in 4D5-H4 (Table 12) (DICLPRWGCLW; disulfide 3-9 (inferred); also: part of Fab heavy chain)
EC50 (rabbit albumin [1]): > 2000 nM
EC50 (rat albumin [2]): 8 ± 0.003 nM

[Cl][Cu][Cl] [CuCl2, reference compound]
effect on SA08b peptide binding to rabbit albumin (rabbit albumin [3]): no effect
effect on SA08b peptide binding to rat albumin (rat albumin [4]): no effect

N[C@@H](Cc1c[nH]c2ccccc12)C(=O)O [L-tryptophan, reference compound]
effect on SA08b peptide binding to rabbit albumin (rabbit albumin [3]): no effect
effect on SA08b peptide binding to rat albumin (rat albumin [4]): no effect

CC[C@H](C)[C@H](NC(=O)[C@H](CC(C)C)NC(=O)[C@H](CCCNC(=N)N)NC(C)=O)C(=O)N[C@@H](CCC(=O)O)C(=O)N[C@@H](CC(=O)O)C(=O)N[C@H](C(=O)N[C@H]1CSSC[C@@H](C(=O)N[C@@H](CC(C)C)C(=O)N[C@@H](Cc2c[nH]c3ccccc23)C(=O)N[C@@H](CCC(=O)O)C(=O)N[C@@H](CC(=O)O)C(N)=O)NC(=O)CNC(=O)[C@H](Cc2c[nH]c3ccccc23)NC(=O)[C@H](CCCNC(=N)N)NC(=O)[C@@H]2CCCN2C(=O)[C@H](CC(C)C)NC1=O)[C@@H](C)CC [SA22] (Ac-RLIEDICLPRWGCLWED-NH2; disulfide 7-13)
improvement in IC50 relative to core sequence of about 10 amino acids (rabbit albumin [3]): 60 fold

CC[C@H](C)[C@H](NC(=O)[C@H](CC(=O)O)NC(C)=O)C(=O)N[C@H]1CSSC[C@@H](C(=O)N[C@@H](CC(C)C)C(=O)N[C@@H](Cc2c[nH]c3ccccc23)C(=O)N[C@@H](CCC(=O)O)C(=O)N[C@@H](CC(=O)O)C(N)=O)NC(=O)CNC(=O)[C@H](Cc2c[nH]c3ccccc23)NC(=O)[C@H](CCCNC(=N)N)NC(=O)[C@@H]2CCCN2C(=O)[C@H](CC(C)C)NC1=O [SA26, Ac DICLPRWGCLWED NH2] (Ac-DICLPRWGCLWED-NH2; disulfide 3-9)
improvement in IC50 relative to core sequence of about 10 amino acids (rabbit albumin [3]): about 8.6 fold

CC[C@H](C)[C@H](NC(=O)[C@H](CC(C)C)NC(=O)[C@H](CCCNC(=N)N)NC(C)=O)C(=O)N[C@@H](CCC(=O)O)C(=O)N[C@@H](CC(=O)O)C(=O)N[C@H](C(=O)N[C@H]1CSSC[C@@H](C(=O)N[C@@H](CC(C)C)C(N)=O)NC(=O)CNC(=O)[C@H](Cc2c[nH]c3ccccc23)NC(=O)[C@H](CCCNC(=N)N)NC(=O)[C@@H]2CCCN2C(=O)[C@H](CC(C)C)NC1=O)[C@@H](C)CC [SA33] (Ac-RLIEDICLPRWGCL-NH2; disulfide 7-13)
improvement in IC50 relative to core sequence of about 10 amino acids (rabbit albumin [3]): approximately 6 fold

CC[C@H](C)[C@H](NC(=O)[C@H](CC(C)C)NC(=O)[C@H](CCCNC(=N)N)NC(C)=O)C(=O)N[C@@H](CCC(=O)O)C(=O)N[C@@H](CC(=O)O)C(=O)N[C@H](C(=O)N[C@H]1CSSC[C@@H](C(N)=O)NC(=O)CNC(=O)[C@H](Cc2c[nH]c3ccccc23)NC(=O)[C@H](CCCNC(=N)N)NC(=O)[C@@H]2CCCN2C(=O)[C@H](CC(C)C)NC1=O)[C@@H](C)CC [SA35] (Ac-RLIEDICLPRWGC-NH2; disulfide 7-13)
IC50 (rabbit albumin [3]): > 250000 nM

CN(C)c1cccc2c(S(=O)(=O)N(C)CC(=O)O)cccc12 [dansylsarcosine, reference compound]
effect on SA08b peptide binding to rabbit albumin (rabbit albumin [3]): no effect
effect on SA08b peptide binding to rat albumin (rat albumin [4]): no effect

CCCCCCCCCCCCCC(=O)O [myristic acid, reference compound]
effect on SA08b peptide binding to rabbit albumin (rabbit albumin [3]): no effect
effect on SA08b peptide binding to rat albumin (rat albumin [4]): no effect

AB.Fab 4D5-H4 (DICLPRWGCLWED; disulfide 3-9 (inferred); also: part of Fab heavy chain)
AUC [5]: 2070 µg·h/mL
CL [5]: 2.41 mL/h/kg
V1 [5]: 0.0284 L/kg
Vss [5]: 0.0444 L/kg
t1/2β [5]: 13.5 h
AUC [6]: 127 ± 16.5 µg·h/mL
CL [6]: 3.58 ± 0.496 mL/h/kg
V1 [6]: 0.0305 ± 0.00167 L/kg
Vss [6]: 0.0822 ± 0.0102 L/kg
t1/2β [6]: 28.3 ± 2.88 h
AUC [7]: 1450 ± 146 µg·h/mL
CL [7]: 3.24 ± 0.352 mL/h/kg
V1 [7]: 0.0522 ± 0.00421 L/kg
Vss [7]: 0.076 ± 0.00656 L/kg
t1/2β [7]: 20.7 ± 1.07 h

AB.Fab 4D5-H8 (IEDICLPRWGCLWE; disulfide 5-11 (inferred); also: part of Fab heavy chain)
AUC [5]: 2610 µg·h/mL
CL [5]: 1.91 mL/h/kg
Vss [5]: 0.0387 L/kg
t1/2β [5]: 14.0^b hr
AUC [6]: 232 ± 62.7 µg·h/mL
CL [6]: 1.99 ± 0.477 mL/h/kg
V1 [6]: 0.0296 ± 0.00332 L/kg
Vss [6]: 0.0659 ± 0.0071 L/kg
t1/2β [6]: 36.2 ± 7.13 h
AUC [7]: 1890 ± 294 µg·h/mL
CL [7]: 2.44 ± 0.453 mL/h/kg
V1 [7]: 0.0458 ± 0.00811 L/kg
Vss [7]: 0.0859 ± 0.0154 L/kg
t1/2β [7]: 28.0 ± 1.88 h

AB.Fab 4D5-H10 (DICLPRWGCLW; disulfide 3-9 (inferred); also: part of Fab heavy chain)
AUC [6]: 33.7 ± 3.32 µg·h/mL
CL [6]: 13.5 ± 1.40 mL/h/kg
V1 [6]: 0.0368 ± 0.00412 L/kg
Vss [6]: 0.0987 ± 0.0141 L/kg
t1/2β [6]: 12.0 ± 2.21 h
AUC [7]: 541 ± 77.9 µg·h/mL
CL [7]: 9.21 ± 1.24 mL/h/kg
V1 [7]: 0.0446 ± 0.00204 L/kg
Vss [7]: 0.0753 ± 0.0092 L/kg
t1/2β [7]: 10.9 ± 2.86 h

AB.Fab 4D5-H11 (DICLPRWGCL; disulfide 3-9 (inferred); also: part of Fab heavy chain)
Kd (rat albumin [8]): 2500 nM
AUC [6]: 24.6 ± 2.74 µg·h/mL
CL [6]: 20.6 ± 2.24 mL/h/kg
V1 [6]: 0.0404 ± 0.00438 L/kg
Vss [6]: 0.101 ± 0.0317 L/kg
t1/2β [6]: 11.9 ± 2.61 h
AUC [7]: 57.0 ± 7.39 µg·h/mL
CL [7]: 80.2 ± 11.8 mL/h/kg
V1 [7]: 0.0487 ± 0.00225 L/kg
Vss [7]: 0.0816 ± 0.00576 L/kg
t1/2β [7]: 4.21 ± 0.151 h

HSQMEDICLPRWGCLWGDEL [RB-B8]
phage binding to rabbit albumin at pH 2.9 (rabbit albumin [9]): no binding

QRHPEDICLPRWGCLWGDDD [RB-H1]
phage binding to rabbit albumin at pH 2.9 (rabbit albumin [9]): no binding
